Legend:
Experiment in all cases: cell-based or functional assay
[1] = molecular target: HIV-1 Env of isolate MGRM-AE-007 (HIV-1)
[2] = molecular target: HIV-1 Env of isolate MGRM-AE-008 (HIV-1)
[3] = molecular target: HIV-1 Env of isolate MGRM-AG-001 (HIV-1)
[4] = molecular target: HIV-1 Env of isolate MGRM-AG-002 (HIV-1)
[5] = molecular target: HIV-1 Env of isolate MGRM-AG-003 (HIV-1)
[6] = molecular target: HIV-1 Env of isolate MGRM-AG-005 (HIV-1)
[7] = molecular target: HIV-1 Env of isolate MGRM-AG-006 (HIV-1)
[8] = molecular target: HIV-1 Env of isolate MGRM-AG-008 (HIV-1)
[9] = molecular target: HIV-1 Env of isolate MGRM-AG-009 (HIV-1)
[10] = molecular target: HIV-1 Env of isolate MGRM-AG-011 (HIV-1)
[11] = molecular target: HIV-1 Env of isolate MGRM-AG-012 (HIV-1)
[12] = molecular target: HIV-1 Env of isolate MGRM-AG-013 (HIV-1)
[13] = molecular target: HIV-1 Env of isolate MGRM-G-001 (subtype G) (HIV-1)
[14] = molecular target: HIV-1 Env of isolate MGRM-G-004 (subtype G) (HIV-1)
[15] = molecular target: HIV-1 Env of isolate MGRM-G-006 (subtype G) (HIV-1)
[16] = molecular target: HIV-1 Env of isolate MGRM-G-009 (subtype G) (HIV-1)
[17] = molecular target: HIV-1 Env of isolate MGRM-G-011 (subtype G) (HIV-1)
[18] = molecular target: HIV-1 Env of isolate MGRM-G-013 (subtype G) (HIV-1)
[19] = molecular target: HIV-1 Env of isolate MGRM-G-014 (subtype G) (HIV-1)
[20] = molecular target: HIV-1 Env of isolate MGRM-G-015 (subtype G) (HIV-1)
[21] = molecular target: HIV-1 Env of isolate MGRM-G-016 (subtype G) (HIV-1)
[22] = molecular target: HIV-1 Env of isolate MGRM-G-017 (subtype G) (HIV-1)
[23] = molecular target: HIV-1 Env of isolate MGRM-G-019 (subtype G) (HIV-1)
[24] = molecular target: HIV-1 Env of isolate MGRM-G-024 (subtype G) (HIV-1)
[25] = molecular target: HIV-1 Env of isolate MGRM-G-025 (subtype G) (HIV-1)
[26] = molecular target: HIV-1 Env of isolate MGRM-G-027 (subtype G) (HIV-1)
[27] = molecular target: HIV-1 Env of isolate MGRM-G-028 (subtype G) (HIV-1)
[28] = molecular target: HIV-1 envelope glycoprotein (Env) of isolate MGRM-C-014, on pseudovirus (HIV-1)
[29] = molecular target: HIV-1 envelope glycoprotein (Env) of isolate MGRM-C-015, on pseudovirus (HIV-1)
[30] = molecular target: HIV-1 envelope glycoprotein (Env) of isolate MGRM-C-017, on pseudovirus (HIV-1)
[31] = molecular target: HIV-1 envelope glycoprotein (Env) of isolate MGRM-C-019, on pseudovirus (HIV-1)
[32] = molecular target: HIV-1 envelope glycoprotein (Env) of isolate MGRM-C-020, on pseudovirus (HIV-1)
[33] = molecular target: HIV-1 envelope glycoprotein (Env) of isolate MGRM-C-022, on pseudovirus (HIV-1)
[34] = molecular target: HIV-1 envelope glycoprotein (Env) of isolate MGRM-C-023, on pseudovirus (HIV-1)
[35] = molecular target: HIV-1 envelope glycoprotein (Env) of isolate MGRM-C-024, on pseudovirus (HIV-1)
[36] = molecular target: HIV-1 envelope glycoprotein (Env) of isolate MGRM-C-025, on pseudovirus (HIV-1)
[37] = molecular target: HIV-1 envelope glycoprotein (Env) of isolate MGRM-C-026, on pseudovirus (HIV-1)
[38] = molecular target: HIV-1 envelope glycoprotein (Env) of isolate MGRM-C-027, on pseudovirus (HIV-1)
[39] = molecular target: HIV-1 envelope glycoprotein (Env) of isolate MGRM-C-028, on pseudovirus (HIV-1)
[40] = molecular target: aMLV envelope (negative control pseudovirus)

For PGT-145 (4995_P16) (antibody), the IC50 [1] was 0.181 µg/mL, the IC50 [2] was 1.46 µg/mL and the IC50 [3] was 0.164 µg/mL. For the same substance, the IC50 [4] was 0.056 µg/mL, the IC50 [5] was > 50 µg/mL and the IC50 [6] was 0.045 µg/mL. For the same substance, the IC50 [7] was 6.6 µg/mL, the IC50 [8] was 0.244 µg/mL and the IC50 [9] was > 50 µg/mL. For the same substance, the IC50 [10] was 0.003 µg/mL, the IC50 [11] was > 50 µg/mL and the IC50 [12] was 14.4 µg/mL. For the same substance, the neutralization IC50 [13] was 0.028 µg/mL, the neutralization IC50 [14] was > 50 µg/mL and the neutralization IC50 [15] was 0.286 µg/mL. For the same substance, the neutralization IC50 [16] was 0.982 µg/mL, the neutralization IC50 [17] was 0.028 µg/mL and the neutralization IC50 [18] was > 50 µg/mL. For the same substance, the neutralization IC50 [19] was 0.144 µg/mL, the neutralization IC50 [20] was 10.5 µg/mL and the neutralization IC50 [21] was 0.081 µg/mL. The neutralization IC50 [22] was 0.205 µg/mL, the neutralization IC50 [23] was 0.041 µg/mL and the neutralization IC50 [24] was 0.06 µg/mL. The neutralization IC50 [25] was > 50 µg/mL, the neutralization IC50 [26] was 0.433 µg/mL and the neutralization IC50 [27] was 0.046 µg/mL. The IC50, pseudovirus neutralization [28] was 5.82 µg/mL, the IC50, pseudovirus neutralization [29] was 0.12 µg/mL and the IC50, pseudovirus neutralization [30] was > 50 µg/mL. The IC50, pseudovirus neutralization [31] was 0.005 µg/mL, the IC50, pseudovirus neutralization [32] was 0.712 µg/mL and the IC50, pseudovirus neutralization [33] was 0.492 µg/mL. It also gave an IC50, pseudovirus neutralization [34] of 0.201 µg/mL, an IC50, pseudovirus neutralization [35] of 0.174 µg/mL and an IC50, pseudovirus neutralization [36] of 0.044 µg/mL. The IC50, pseudovirus neutralization [37] was > 50 µg/mL, the IC50, pseudovirus neutralization [38] was 0.095 µg/mL and the IC50, pseudovirus neutralization [39] was 0.099 µg/mL. For the same substance, the neutralization IC50 [40] was > 50 µg/mL.

From US20200024330A1
